Measurements: patent US6884600B1, “Protein phosphatase-1 catalytic subunit interactions” (Medical Research Council London, priority 1996, dated 2005)

Target: PP1c (γ1-isoform) (Homo sapiens, UniProt P36873)
Assay: Far Western: GST-GM fusion proteins probed with digoxygenin-labelled PP1γ
Type: binding
Conditions: GST-fusion proteins on blot probed with digoxygenin-labelled PP1γ
From the text: GST-GM fusion proteins were electrophoresed on 10% SDS/polyacrylamide gels and stained with Coomassie blue (lanes 1-3) or, after transfer to nitrocellulose, probed with digoxygenin-labelled PP1γ (lanes 4-6) as in [9]. Lanes 1 and 4, GST-GM-(E2-D118); Lanes 2 and 5, GST-GM-(H100-P350); Lanes 3 and 6, GST. The positions of the marker proteins glycogen phosphorylase (97 kDa), bovine serum albumin (66 kDa), ovalbumin (43 kDa), carbonic anhydrase (29 kDa) and soybean trypsin inhibitor (20 kDa) are indicated.
The myosin-associated form of PP1 (PP1M) was from chicken gizzard and the glycogen-associated form of PP1 (PP1G) from rabbit skeletal muscle. The β isoform of PP1c was released from PP1G by incubation for 2 hours in 2M LiBr, then purified by gel-filtration on a 30×1 cm column of Superose 12 (Pharmacia, Milton Keynes, U.K.) in the presence of 0.5M LiBr. Glycogen protein particles from rat liver were used as the source of hepatic PP1G Digoxygenin-labelled PP1c (γ1-isoform, hereafter termed PP1) was prepared as in [9]. GL was expressed in E. coli as a glutathione-S-transferase (GST) fusion protein [7], termed GST-GL. The catalytic subunit of PP2A from bovine heart (PP2AC) was provided by Dr R. MacKintosh in this Unit. The phosphorylatable myosin light chain (MLC20) and heavy meromyosin from chicken gizzard were a gift from Dr M. Ikebe (Case Western Reserve University, Cleveland, USA). Thrombin and benzamidine-Agarose were purchased from Sigma (Poole, UK).
The amino acid sequence of rat hepatic GL is 23% identical (39% similar) to residues 1-286 of GM from human skeletal muscle. […] Fusion proteins in which GST was linked to fragments of GM were therefore tested for their ability to bind to PP1c. […] We therefore synthesised GM-(G63-T93) and examined its effect on the enzymatic properties of PP1GL, the form of PP1 associated with rat hepatic protein-glycogen particles.

Sequence of PP1c (γ1-isoform) (P36873 whole entry, the tested form may be a part, canonical isoform): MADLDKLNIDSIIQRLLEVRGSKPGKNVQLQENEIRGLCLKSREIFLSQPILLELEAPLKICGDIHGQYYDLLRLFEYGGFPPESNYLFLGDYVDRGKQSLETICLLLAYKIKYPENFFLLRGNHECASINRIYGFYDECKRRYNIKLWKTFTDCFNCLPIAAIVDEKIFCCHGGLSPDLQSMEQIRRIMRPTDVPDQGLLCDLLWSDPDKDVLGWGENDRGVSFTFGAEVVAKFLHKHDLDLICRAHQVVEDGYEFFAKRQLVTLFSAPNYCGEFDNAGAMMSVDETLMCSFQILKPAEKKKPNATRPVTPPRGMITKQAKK

interaction with PP1 in Far Western experiments: not
B1: GST-GM-(H100-P350): GST fusion of amino acids 100-350 of human GM (protein)
chain: HTEEYVLAPLFDLPSSKEDLMQQLQIQKAILESTESLLGSTSIKGIIRVLNVSFEKLVYVRMSLDDWQTHYDILAEYVPNSCDGETDQFSFKIVLVPPYQKDGSKVEFCIRYETSVGTFWSNNNGTNYTFICQKKEQEPEPVKPWKEVPNRQIKGCLKVKSSKEESSVTSEENNFENPKNTDTYIPTIICSHEDKEDLEASNRNVKDVNREHDEHNEKELELMINQHLIRTRSTASRDERNTFSTDPVNFP
modifications: left off: a dimerising Fc or GST
notes: GST fusion of amino acids 100-350 of human GM
